# According to a protein production outcome set (Wang et al. 2014):
# Test: label from the status in PepcDB records
row,Sequence,protein production
1,MSPIEKSSKLENVCYDIRGPVLKEAKRLEEEGNKVLKLNIGNPAPFGFDAPDEILVDVIRNLPTAQGYCDSKGLYSARKAIMQHYQARGMRDVTVEDIYIGNGVSELIVQAMQALLNSGDEMLVPAPDYPLWTAAVSLSSGKAVHYLCDESSDWFPDLDDIRAKITPRTRGIVIINPNNPTGAVYSKELLMEIVEIARQHNLIIFADEIYDKILYDDAEHHSIAPLAPDLLTITFNGLSKTYRVAGFRQGWMVLNGPKKHAKGYIEGLEMLASMRLCANVPAQHAIQTALGGYQSISEFITPGGRLYEQRNRAWELINDIPGVSCVKPRGALYMFPKIDAKRFNIHDDQKMVLDFLLQEKVLLVQGTAFNWPWPDHFRIVTLPRVDDIELSLSKFARFLSGYHQL,failed
2,MSPPRDLPTLGRNTIPIPEFEMTRRNSKPGVRLLSVLVALGMAAPALAQAVTEPVTQPAIYPTPVSITLDGATIALGRSVVLVVAPGADKATVALVRSILSSAGVTKMATATRLPATLDRPHIVLGTGDAAVVRDALARSKARQDTHKEGYTLASVALDGGSLITLAGHDDDGLFHAAQTLRQLVERPAIPTLTIHDYPAMPIRGTIEGFYGAPWSMSDRSKHIDFLARTKANTFIYSPKDDPYARDRWRAPYPKATLKALGQLAATAKRNHVDFVYAISPGPTVCFSDPADAKALLRKFDAFRALGVRSFYVALDDIEYTKWNCERDKTAFGESGAQAAGIAQSHLLNLVQADLVARHDATSELIMVPTEYYDAKESPYKEALRKHLDPKIVVQWTGTDVVPPAISIPDARAATKAFGRKTLLWDNYPVNDFETSAGRLLMAPYARREAGLSAELSGIVSNPMNQEVPSRVAVMGLTAFAWNDKDYDAQRTWHAAARDLAGGDARVTAALLIFFDTQHLAPTFGSQPWQEQAPRLKAVLDHVREAIALGDAAARTQAIAELARTADEMAAAPQIIRDSVADKGFAKQSRPWLEAMEVWGGALQKTAAGLDAANRGDTQAPALFAEAAAHAAVAAVVPSIPGATRFDGPVKIADGVLDRFIAQAPRLIAYRVPAVADSAAAK,failed
3,MSPRSIAMCGRCGIRARHSVAPDCCLSVRQATNKCPAVEHHSHGGRRPCTANGGVAFDRFVMTNRFSPRARSTRIVSKVVWRKRSGRDDENKKTRGEHDMSASVQSALSGLVLAAAVAMPALADGLKDEIAPTGKLRVAIAISPAGGAFWSTRTETGYAGVPVDLGKEMAAQLGVGVEYVVHQNSGQITDAASKGTWDVTWLPKDPERESKMMFGPIYEVADATYIVKAGSNVTSFASLDQPGIKVAAVNATTTMRGAVAHLRNAEVTGYQTYDEIFGLLKSGEIDAFALSRDQLNKMAQKIPGTKVLDETFKKTVTAVAVPLGHSLALTFVTKFMNEATINGTLRKAYDNNGLKDSPIRTE,failed
4,MSQAHAAQRPNGAKEPANPTQGGRKAIIAAASANLAIAVTKAIAWALTGASSMLAEAIHSVADTANQVVLMMGGKESHKEADEDHPFGYETARYLSGFIVAIVIFTLGGLFALYEAYHKIGATLGGHPDELLDSQWWWVPLAVVMISLCAEGASLRTALKESSQDREGMTILQYIRKAKAPELPVVMLEDSAAVLGLIFAFLGVGLTLLTHNPIFDGIGSACIGILLVVVAGVLSREMKSLLEGESAAPESRKAVYDALIHSDGVDSVIYMKTVHLGPETILLAAKIAVDPTDSAFEVARIIDNAEASVRAAEPLVGPLFLEPDIRYGDKRIKDGEERPEDQS,failed
5,MSQALPVRDQGRDQGIFAGTLPPAPPKFKWTRLDTYTWAIIAVFALVTRFTGLSSATASGTPVFDEKHYVPQAWDMVRSWINPITGGIESNPGYGLVVHPPLAKQLEALGEWVFGYTPLGWRIMVAIFGTLTIFAIMAIARRLSGSTMVTFIAGILALADGVLLVSSRFGMLDIFLVFFITAAAWALIRDHQQMHQRLNDLLLTNGQITKDFGPRFGFRWWRFTTGVFLGLALSVKWSGLYYIAFFGLTSVFLDLWLRKRYGVRRYVTGTLKNDVIPALGSLVIIPALLYIWSWRAWFASETSVYRHAKTDGTITEDSILQLFPESIAGWIHYHISVLEFHGSLTTSSGHSHPWDSKPWAWLVSGRPILYFSSTDISCDVGGTCRRMIYLFGTPAIWWLTVPVILWALWSFFARRSRGYVVPLVAFAAGFLPWLAAYDRQMYFFYATALVPFTIIMLALACGELWGRGKMTPTGLTRGSMAVVTYISLVVMMFLAFSPLFYGFVIPDYVYESLMWFPSWR,not failed
6,MSQELKNKVQFLAKELNQLVNILYEESKKQTPLTLWLLCKNTFVYLYRTVKTVRGVAGVLLVLVPGSLMAYTTDAFRAIGELPWTSITVLLGGMSFFLFAYLRHLVLDEMSRPGSDLFHIQVYEKRKPDEYMSLIALAKERDYVESIAADIEQVTSTPSLPNLLELLKEKEQDIEEKDRVIEDLLEIVEDNEEHTLMFKEKYEILLDFVFQLKSKLNLLVHDQFSLDSIDFGSDYSLYKVGEEGLEFVDSYGVNKAEMEDFIPFTEKGNPYILAIERDYKDPLKVGDLISWKRTLQDGSQWVLSLHLNENSREKLNDVTESGKLNVTITQELLWICCELLNKFSPNPTKKGEE,failed
7,MSQFPLISVMTFLPLLGVVLLFFVPKQSHSVHRMLALLVSLVTFVVSIPLVTGFQSNADFQFVEKMPWIAAGPFQMNYHVAIDGISLWLVLLTTFIMPIAILSTWTAVEEKVKEYMICLLLLEVGMLGAFVSLDLFLFYIFWEVMLIPMYFIIGIWGGKNKIYAAVKFFIYTMVGSMLMLVALVTLYFKAGAGDFNVLRFYEVTLDPATQVWMFLAFALAFAIKVPMFPLHTWLPDAHTEAPTAGSVILAAVLLKMGTYGFVRFAMPLFPDATDKFTPLIATLSVIGIIYAALVAMVQEDVKKLVAYSSVAHLGYVMLGVFALNLQGLSGGMLQMLNHGVSTGALFLIVGFIYERRHTRLITDFGGLAKQMPVFATIFMIVTLSSIGLPGTNGFVGEFLVLLGAFESELRWYAVIGTSGVILAAVYMLWMFQRVMFGELTNPKNQTLCDLNAREVGIMLPLLVLIFVMGVYPTPFIEKMSPSLEKLIVHVKTKQQGAVAQVETVPAAPQVMPAAAVVPAEHK,failed
8,MSQFPNRAALWLNKLAPDAPLMSGLCPSVQVTDGQINGESVRFIAVVPDANNHYPRAAGGEVGLLEGWTLAKVVNETIAADADRPVKRPIVAVIDVPSQAYGRREEAFGIHQALAGAAGAYAKARLAGHPVIGLIVGKAMSGAFLAHGYQANRLIAFNDSGVLVHAMGKASAARITLRTVEALEKLAATIPPMAYDVSNYATLGLLSALLDISNPDAPDEGDLSLVSRTLRDAIADARTDTSLKCRLGAENRRSSQLVRDRMRASW,failed
9,MSQFQEVRPVAQALYPTHPSTKDALEEARLLLPGGTHHDFMRALMGYHNTLVKVMEEQC,not failed
10,MSQIFVVFSSDPEILKEIVREIKRQGVRVVLLYSDQDEKRRRERLEEFEKQGVDVRTVEDKEDFRENIREIWERYPQLDVVVIVTTDDKEWIKDFIEEAKERGVEVFVVYNNKDDDRRKEAQQEFRSDGVDVRTVSDKEELIEQVRRFVRKVGSLEHHHHHH,not failed
11,MSQILIGVGWVLFTVLLYQLSKKIYKLFPTPFTIPMLVATGLMAFLFIVLDIPYQHYMESGGGWIAKLLGPGVVAFAIPLYKQRHVLQKYVVPIAGGVLVGTTVAIASDFAIASLMGTDKSLILSSLPKSVTMPVAMSVSEQVGGVPSLTAAFVVIAGITGTITGPLLLKWSRVTNSVGKGIGFGCASHIMGVMRAMKNNEHEGVIGSVTMTLTAILTCLLGPLFAMMFM,failed
12,MSQKKTSSRSSSVDDPATQYAKEVHSGERVAGPDIRNACARHLRDLEEGPKRGLTWDLDAANKAIRFYRTVLKLNGGEFEGLPFELLPWQKFIVGSIFGWKSSDGYRRFRVVYVESGKGSGKSPLAAGVGLTGLIADNEARAEIYAAATKKDQAMILFRDAVAMVQQSPELTKRLVCSGTGQNIWNLAYLKSGSFFRPISSDDGQSGPRPHMALIDEVHEHKTNMVVEMMRAGTKSRKQALIFMITNSGSNKRGPCWEYHEYGSRVASGALTDDGFFAYICSLDEGDDPIQDESCWFKSNPSLQDADLPGMKYLREQVTEARGMPSKEAMVRRLNFCEWTGAESPWISWDVWSQAEERVPMSLLRNRPSVGGLDLSSTTDLTSFVLLFYPTYEDPHWRLLPYFWIPDHELDKREARDKVPYAAWIKSRDLETTPGRAISKLHVLRRLQTICDFFQVDKIAFDRWRIEDMRQLMSEYDITLPELVEFGQGFKDMGPAVDEFERRLLGMIEQQPEEEGGAAEFFDDALPAEAVESLRHDGNPVMTWCAGNAVIVSDPANNRKADKAKATGRIDGIIAAIMATGISGAVSSGSSGSSIYDEGVGV,failed
13,MSQLVTHAFDDATALSFDGRQFHGQVKAEYYNMVGPFGGITAATMLKAAMSHPERLGQPLALTVNFAAPAKVAPFVIEAVPVRTNRSTQHFTLTMMQDGEVVTTATAVFGIRRESWSHTEAVMPDVPPPADVPRFVAPAPLPWMQWYHVRLIRGSAFDEVQDATTYQWMRDDPPRPLDHAALAALCDTFVPRVYVKLKRPVPIGTVTFTVYFLADPETIFRQGTNELLGVARATGFSHGYFDQIGEVWSQDGDLLATTTQLVYMKAPVSGSS,not failed
14,MSQNWNADYATLAKRGFMLGAGLFLLGIAGEVAGSAVLGTLPAWGDTLLVDMEMLGILVGLLSPLVFGVVMPLTE,failed
15,MSQQVIIFDTTLRDGEQALQASLSVKEKLQIALALERMGVDVMEVGFPVSSPGDFESVQTIARQVKNSRVCALARCVEKDIDVAAESLKVAEAFRIHTFIATSPMHIATKLRSTLDEVIERAIYMVKRARNYTDDVEFSCEDAGRTPIADLARVVEAAINAGATTINIPDTVGYTMPFEFAGIISGLYERVPNIDKAIISVHTHDDLGLAVGNSLAAVHAGARQVEGAMNGIGERAGNCSLEEVIMAIKVRKDILNVHTAINHQEIWRTSQLVSQICNMPIPANKAIVGSGAFAHSSGIHQDGVLKNRENYEIMTPESIGLNQIQLNLTSRSGRAAVKHRMDEMGYKESEYNLDNLYDAFLKLADKKGQVFDYDLEALAFIGKQQEEPEHFRLDYFSVQSGSNDIATAAVKLACGEEVKAEAANGNGPVDAVYQAINRITDYNVELVKYSLTAKGHGKDALGQVDIVANYNGRRFHGVGLATDIVESSAKAMVHVLNNIWRATEVEKELQRKAQHNENNKETV,not failed
16,MSQSNSNHSPQEQWQQAVLTYARDINRYVETGNRDGWKGLKEPHLPDTEHLLPDWQAALEASNQEPYDAARRQAFRQEWPPAHFPLSPRLESQGRMIPTLALLPDGSLLARIGAPYEAGEVVHIDDARIQPLEQVEGFGMCPQRRYFAWARADGIQLTDGWNGPEVASFAWPDPHANLPAGVALEDTGRPRPSSLIPFPDGRRVLLVSSDGIFVLQAEGATRLLPSLEDLQQELADGVAPEDLGIGLSMEHGAVSPDGQWIAVGEQSSSHLVFDARLQRVAQIGPASEYPHFAHFNQRGDRLLLNACHFYGGASVGVAVADLPGLSTDFYSDDARTPVLQEGARVYAAASRGDEFIIGDAYGYLRAFSENGEERWQHYIGSTLTAMDISPDGKTLVAATYAGIIVKLDLDAGRPDWQIGTGEHLEVQRWLFWKDFAKPLLW,failed
17,MSQSPILFFQHGMGESNQNMQILAGRVASENAYVVVPNLNLLTTFLNLDPLIEVVERSASETLNDFPQSTFSVVGFSMGGILWVEVLSRNPSWLERLDALVLIGSPIQGASLARTVDLFGWGIGIAQELGRNRQYLAEKITQKIPTLVIAGSVNGGGDGVIPIESTRLNGTHFFTRNNVKHQDLPIDLIIGEKVKSFLLHPYLIPS,failed
